Test results: the Immune Epitope Database (IEDB)

Columns and labels:
Assay in all cases: IEDB peptide-MHC binding, purified MHC/competitive/radioactivity; ≥ and ≤ were set here for values at or beyond the usual limits of such assays
Settings in all cases: source organism: Hepatitis delta virus
HLA-B*18:01 = target: HLA-B*18:01
HLA-B*44:02 = target: HLA-B*44:02
HLA-B*44:03 = target: HLA-B*44:03
HLA-A*02:05 = target: HLA-A*02:05
HLA-B*07:02 = target: HLA-B*07:02
HLA-B*35:01 = target: HLA-B*35:01
HLA-B*52:01 = target: HLA-B*52:01
HLA-B*58:01 = target: HLA-B*58:01
HLA-B*27:05 = target: HLA-B*27:05

Row | Sequence | IC50 (HLA-A*02:05) [µM] | IC50 (HLA-B*07:02) [µM] | IC50 (HLA-B*35:01) [µM] | IC50 (HLA-B*52:01) [µM] | also measured
1 | DDNPWLGNI | – | – | – | – | IC50 (HLA-B*18:01): ≥ 50 µM; IC50 (HLA-B*44:02): 35.1 µM; IC50 (HLA-B*44:03): 9.19 µM
2 | DRGFPWDILF | ≥ 50 | ≥ 50 | ≥ 50 | 4.68 | –
3 | EENLWLGNI | – | – | – | – | IC50 (HLA-B*18:01): 1.99 µM; IC50 (HLA-B*44:02): 0.468 µM; IC50 (HLA-B*44:03): 0.217 µM
4 | FPWDILFPA | 9.37 | 0.096 | 0.0057 | – | –
5 | FPWDILFPS | 11.7 | 13.5 | 0.027 | – | –
6 | FPWDLLFPA | 4.16 | 0.467 | 0.018 | – | –
7 | FPWDMLFPA | 5.74 | 0.43 | 0.0017 | – | –
8 | NQGIPWDILF | 7.17 | ≥ 50 | ≥ 50 | 1.47 | –
9 | QGFPWDILF | 9.63 | 44.3 | 0.118 | 0.018 | –
10 | QGFPWDLLF | 3.41 | ≥ 50 | 0.213 | 0.135 | –
11 | RGDREFPW | – | – | – | – | IC50 (HLA-B*58:01): 0.195 µM
12 | RGSQGFPW | – | – | – | – | IC50 (HLA-B*58:01): 0.014 µM
13 | RRKALENKR | – | – | – | – | IC50 (HLA-B*27:05): 0.109 µM
14 | RRKALENKS | – | – | – | – | IC50 (HLA-B*27:05): 13.6 µM
15 | SQGFPWDILF | 3.12 | ≥ 50 | ≥ 50 | 3.66 | –
16 | TGRQGFPW | – | – | – | – | IC50 (HLA-B*58:01): 1.55 µM
